Source: patent US20110243962A1 (GENEURO, published 2011)

Target: T1, MSRV complete ENV protein (ENV-T), recombinant from E. coli (MSRV (Multiple Sclerosis associated …))
T1 chain: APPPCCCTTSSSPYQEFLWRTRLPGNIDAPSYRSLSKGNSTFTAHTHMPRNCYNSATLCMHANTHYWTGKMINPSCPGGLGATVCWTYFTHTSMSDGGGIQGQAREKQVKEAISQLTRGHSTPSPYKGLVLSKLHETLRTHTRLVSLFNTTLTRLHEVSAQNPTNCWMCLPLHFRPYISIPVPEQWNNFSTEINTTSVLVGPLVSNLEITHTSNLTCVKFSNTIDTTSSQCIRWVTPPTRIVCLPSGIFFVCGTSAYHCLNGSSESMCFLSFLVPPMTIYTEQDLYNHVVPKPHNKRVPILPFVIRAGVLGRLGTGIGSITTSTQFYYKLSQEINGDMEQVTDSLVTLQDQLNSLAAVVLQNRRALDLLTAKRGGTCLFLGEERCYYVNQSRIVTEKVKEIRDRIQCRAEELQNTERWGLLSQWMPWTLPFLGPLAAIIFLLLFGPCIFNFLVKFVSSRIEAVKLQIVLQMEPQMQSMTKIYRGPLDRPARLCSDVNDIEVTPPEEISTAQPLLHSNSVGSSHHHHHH
Test: cell-based or functional assay

B1: Chimeric GNb AC1 IgG4 (human IgG4 constant regions with murine VH and VL) (antibody, V domains shown)
VH: QVQLQQSGAELVRPGASVTLSCKASGYTFTDYEMHWVKQTPVHGLEWIGAVAPETGGTAYNQKFKGKATLTAAKSSSTAYMELRSLTSEDSAVYYCTSTVVPFAYWGQGTLVTVSA
VL: QIVLTQSPAIMSASPGEKVTISCSASSSVSYMYWYQQKPGSSPKAWIYRTSNLASGVPGRFSGSGSGTSYSLTISSMEAEDAATYYCQQYQSLPLTFGSGTKLEIKR
notes: also called GNbAC1 chimeric IgG4; GNbAC1-IgC4
  IL-6 at 24 h in PBMC culture with ENV-T 0.1 ug/ml, MAb ratio 10/1 (no antibody: 4363): 2270
